Test results: publication PMC4706170

Key:
[1] = target: BG505 SOSIP.664 trimer (HIV-1 strain BG505); assay: AUC
[2] = target: BG505 SOSIP.664 201C-433C (HIV-1 strain BG505); assay: AUC

Row | Substance | stoichiometry N (CD4 per trimer) [1] | stoichiometry N (CD4 per trimer) [2]
1 | 2-domain soluble CD4 (CD4 D1D2) (domain or fragment) | 3 | –
2 | 2-domain soluble CD4 (domain or fragment) | – | 1
3 | 4-domain CD4 (domain or fragment) | 2 | 1
4 | 4-domain soluble CD4 (CD4 D1D4) (domain or fragment) | 3 | –
